# In patent US20140107039A1 (ROCKEFELLER UNIVERSITY, published 2014):
# Target: Polycomb Repressive Complex 2 (PRC2), purified through FLAG-tagged human EED from HeLa or HEK293T nuclear … (human, UniProt O75530 1-441; Q15910 1-746)
# Assay: cell-based or functional assay
# Polycomb Repressive Complex 2 (PRC2), purified through FLAG-tagged human EED from HeLa or HEK293T nuclear …, sequence (O75530 whole entry, chain 1 of 2): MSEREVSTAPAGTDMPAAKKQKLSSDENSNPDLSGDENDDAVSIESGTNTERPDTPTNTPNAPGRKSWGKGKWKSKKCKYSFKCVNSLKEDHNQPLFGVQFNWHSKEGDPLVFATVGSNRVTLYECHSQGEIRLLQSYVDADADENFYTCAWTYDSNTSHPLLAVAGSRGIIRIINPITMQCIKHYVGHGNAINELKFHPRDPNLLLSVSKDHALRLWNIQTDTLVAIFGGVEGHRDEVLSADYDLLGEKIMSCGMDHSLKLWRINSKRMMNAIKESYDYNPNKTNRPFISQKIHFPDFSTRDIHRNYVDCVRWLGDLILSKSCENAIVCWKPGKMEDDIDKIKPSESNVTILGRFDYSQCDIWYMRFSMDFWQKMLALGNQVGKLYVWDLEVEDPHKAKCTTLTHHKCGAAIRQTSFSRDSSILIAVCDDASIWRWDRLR
# Polycomb Repressive Complex 2 (PRC2), purified through FLAG-tagged human EED from HeLa or HEK293T nuclear …, sequence (Q15910 whole entry, chain 2 of 2): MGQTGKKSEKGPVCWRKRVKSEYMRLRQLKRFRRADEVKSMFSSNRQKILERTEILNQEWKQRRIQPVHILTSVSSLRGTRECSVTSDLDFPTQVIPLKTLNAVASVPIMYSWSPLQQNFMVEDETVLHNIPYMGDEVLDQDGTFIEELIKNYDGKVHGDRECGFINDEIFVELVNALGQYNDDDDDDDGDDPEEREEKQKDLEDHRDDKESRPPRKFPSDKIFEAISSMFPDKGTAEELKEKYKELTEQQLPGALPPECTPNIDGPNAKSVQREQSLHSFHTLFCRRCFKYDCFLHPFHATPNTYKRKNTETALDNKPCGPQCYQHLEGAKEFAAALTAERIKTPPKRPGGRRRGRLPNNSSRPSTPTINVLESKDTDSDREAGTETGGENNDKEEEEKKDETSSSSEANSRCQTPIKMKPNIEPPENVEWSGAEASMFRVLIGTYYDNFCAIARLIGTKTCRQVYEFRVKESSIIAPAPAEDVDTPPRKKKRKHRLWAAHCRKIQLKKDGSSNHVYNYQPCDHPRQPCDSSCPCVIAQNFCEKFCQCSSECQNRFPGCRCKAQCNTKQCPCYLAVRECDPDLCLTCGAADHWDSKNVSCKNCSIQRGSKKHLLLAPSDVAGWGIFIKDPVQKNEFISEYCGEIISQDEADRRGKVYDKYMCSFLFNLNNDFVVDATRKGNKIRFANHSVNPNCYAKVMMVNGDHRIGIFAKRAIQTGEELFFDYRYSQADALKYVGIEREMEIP
binder,measurement,value
KQLATKAARISAPSTGGVKK [H3 peptide (18-37) with Lys27 replaced by Ile],"IC50, in vitro PRC2 methylation reactions",8.9 µM
